# Laboratory results taken from US20150315556.
# T1: GLA2 rationally-designed meganuclease (I-CreI derivative)
# T1 chain: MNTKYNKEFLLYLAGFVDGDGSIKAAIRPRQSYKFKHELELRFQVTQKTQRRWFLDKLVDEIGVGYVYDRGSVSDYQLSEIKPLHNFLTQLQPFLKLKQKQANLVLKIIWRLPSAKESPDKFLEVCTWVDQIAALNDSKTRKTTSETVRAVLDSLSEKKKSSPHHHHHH
# T2: BRP2 rationally-designed meganuclease (I-CreI derivative)
# T2 chain: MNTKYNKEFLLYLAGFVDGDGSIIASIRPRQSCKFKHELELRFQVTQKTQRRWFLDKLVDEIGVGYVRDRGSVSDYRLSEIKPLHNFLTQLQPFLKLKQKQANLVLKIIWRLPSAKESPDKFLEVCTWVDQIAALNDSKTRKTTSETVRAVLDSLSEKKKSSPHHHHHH
# T3: ANT2 rationally-designed meganuclease (I-CreI derivative)
# T3 chain: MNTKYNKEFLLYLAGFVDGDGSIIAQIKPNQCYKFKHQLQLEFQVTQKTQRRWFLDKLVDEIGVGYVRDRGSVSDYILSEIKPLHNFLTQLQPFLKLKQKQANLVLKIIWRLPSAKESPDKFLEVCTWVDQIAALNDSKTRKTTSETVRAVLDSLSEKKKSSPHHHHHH
# T4: URA2 rationally-designed meganuclease (I-CreI derivative)
# T4 chain: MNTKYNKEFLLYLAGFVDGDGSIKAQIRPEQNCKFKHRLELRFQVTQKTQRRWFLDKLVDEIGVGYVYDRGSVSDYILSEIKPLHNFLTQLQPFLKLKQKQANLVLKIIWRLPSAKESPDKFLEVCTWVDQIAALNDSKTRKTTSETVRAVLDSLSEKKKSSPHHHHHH
# T5: LAM2 variant in which glutamic acids at positions 8 and 61 were changed to lysine
# T5 chain: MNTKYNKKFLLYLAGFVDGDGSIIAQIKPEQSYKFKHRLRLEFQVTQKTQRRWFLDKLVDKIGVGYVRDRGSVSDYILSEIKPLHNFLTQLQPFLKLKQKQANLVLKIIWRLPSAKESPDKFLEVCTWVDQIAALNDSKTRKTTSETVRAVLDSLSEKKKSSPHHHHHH
# T6: ACH2 rationally-designed meganuclease (I-CreI derivative)
# T6 chain: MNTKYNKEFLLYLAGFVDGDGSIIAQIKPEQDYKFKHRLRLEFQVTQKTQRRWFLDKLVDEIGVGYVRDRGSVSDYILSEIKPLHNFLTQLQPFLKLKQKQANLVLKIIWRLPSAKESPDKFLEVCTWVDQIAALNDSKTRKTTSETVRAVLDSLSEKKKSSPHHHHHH
# T7: HGH2 rationally-designed meganuclease (I-CreI derivative; partner of HGH1, half-site SEQ ID NO: 56)
# T7 chain: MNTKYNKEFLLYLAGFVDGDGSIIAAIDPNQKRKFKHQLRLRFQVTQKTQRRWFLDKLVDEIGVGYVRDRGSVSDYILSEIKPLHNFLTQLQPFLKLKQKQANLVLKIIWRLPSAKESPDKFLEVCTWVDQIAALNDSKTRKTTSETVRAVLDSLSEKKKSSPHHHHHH
# T8: LAM2 rationally-designed meganuclease (I-CreI derivative)
# T8 chain: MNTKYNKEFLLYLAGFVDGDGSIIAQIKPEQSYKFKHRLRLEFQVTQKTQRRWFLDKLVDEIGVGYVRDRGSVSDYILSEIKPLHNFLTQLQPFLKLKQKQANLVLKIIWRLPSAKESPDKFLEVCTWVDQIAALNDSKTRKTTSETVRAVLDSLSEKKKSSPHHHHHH
# T9: MGC2 rationally-designed meganuclease (I-CreI derivative)
# T9 chain: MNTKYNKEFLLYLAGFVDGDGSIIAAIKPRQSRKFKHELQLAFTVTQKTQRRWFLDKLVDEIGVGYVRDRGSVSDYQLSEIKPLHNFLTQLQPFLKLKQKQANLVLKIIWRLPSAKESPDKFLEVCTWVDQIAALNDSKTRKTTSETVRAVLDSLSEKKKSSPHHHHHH
# T10: HGH2 rationally-designed meganuclease (I-CreI derivative; partner of CYP, half-site SEQ ID NO: 76)
# T10 chain: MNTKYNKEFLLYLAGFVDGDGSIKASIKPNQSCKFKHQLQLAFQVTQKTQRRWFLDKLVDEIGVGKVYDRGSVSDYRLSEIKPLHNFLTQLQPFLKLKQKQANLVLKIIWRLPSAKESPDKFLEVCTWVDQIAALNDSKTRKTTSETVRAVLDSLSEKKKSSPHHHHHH
# T11: CF2 rationally-designed meganuclease (I-CreI derivative)
# T11 chain: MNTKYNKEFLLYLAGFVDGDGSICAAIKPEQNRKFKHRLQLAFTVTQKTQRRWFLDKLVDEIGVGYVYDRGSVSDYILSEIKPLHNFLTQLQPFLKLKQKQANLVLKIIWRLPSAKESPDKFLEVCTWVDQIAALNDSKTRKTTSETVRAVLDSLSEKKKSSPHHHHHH
# T12: PDX2 rationally-designed meganuclease (I-CreI derivative)
# T12 chain: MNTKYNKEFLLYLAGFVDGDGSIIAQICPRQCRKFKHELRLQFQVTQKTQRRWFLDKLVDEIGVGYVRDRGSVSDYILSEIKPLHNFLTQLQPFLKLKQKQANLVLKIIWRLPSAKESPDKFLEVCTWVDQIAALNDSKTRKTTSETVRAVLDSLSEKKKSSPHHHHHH
# Tests used:
# [1] = target: T1, GLA2 rationally-designed meganuclease …
# [2] = target: T2, BRP2 rationally-designed meganuclease …
# [3] = target: T3, ANT2 rationally-designed meganuclease …
# [4] = target: T4, URA2 rationally-designed meganuclease …
# [5] = target: T5, LAM2 variant in which glutamic acids at …
# [6] = target: T6, ACH2 rationally-designed meganuclease …
# [7] = target: T7, HGH2 rationally-designed meganuclease …
# [8] = target: T8, LAM2 rationally-designed meganuclease …
# [9] = target: T9, MGC2 rationally-designed meganuclease …
# [10] = target: T10, HGH2 rationally-designed meganuclease …
# [11] = target: T11, CF2 rationally-designed meganuclease …
# [12] = target: T12, PDX2 rationally-designed meganuclease …
protein,measurement,setting,value
GLA1 rationally-designed meganuclease (I-CreI derivative) (protein) MNTKYNKEFLLYLAGFVDGDGSIKAAIKPRQSYKFKHELSLAFQVTQKTQRRWFLDKLVDEIGVGYVYDRGSVSDYQLCEIKPLHNFLTQLQPFLKLKQKQANLVLKIIWRLPSAKESPDKFLEVCTWVDQIAALNDSKTRKTTSETVRAVLDSLSEKKKSSPHHHHHH,cleavage of a linearized DNA substrate containing the intended non-palindromic recognition sequence by the 1:1 mixture,[1],each rationally-designed meganuclease heterodimer cleaves its intended DNA site
BRP1 rationally-designed meganuclease (I-CreI derivative) (protein) MNTKYNKEFLLYLAGFVDGDGSIKAQIRPRQCRKFKHELELAFQVTQKTQRRWFLDKLVDEIGVGKVYDRGSVSDYELSEIKPLHNFLTQLQPFLKLKQKQANLVLKIIWRLPSAKESPDKFLEVCTWVDQIAALNDSKTRKTTSETVRAVLDSLSEKKKSSPHHHHHH,cleavage of a linearized DNA substrate containing the intended non-palindromic recognition sequence by the 1:1 mixture,[2],each rationally-designed meganuclease heterodimer cleaves its intended DNA site
ANT1 rationally-designed meganuclease (I-CreI derivative) (protein) MNTKYNKEFLLYLAGFVDGDGSIIAQIAPNQNCKFKHQLQLRFQVTQKTQRRWFLDKLVDEIGVGYVRDRGSVSDYILSEIKPLHNFLTQLQPFLKLKQKQANLVLKIIWRLPSAKESPDKFLEVCTWVDQIAALNDSKTRKTTSETVRAVLDSLSEKKKSSPHHHHHH,cleavage of a linearized DNA substrate containing the intended non-palindromic recognition sequence by the 1:1 mixture,[3],each rationally-designed meganuclease heterodimer cleaves its intended DNA site
URA1 rationally-designed meganuclease (I-CreI derivative) (protein) MNTKYNKEFLLYLAGFVDGDGSIIAQIKPNQSCKFKHQLRLAFTVTQKTQRRWFLDKLVDEIGVGYVRDRGSVSDYILSEIKPLHNFLTQLQPFLKLKQKQANLVLKIIWRLPSAKESPDKFLEVCTWVDQIAALNDSKTRKTTSETVRAVLDSLSEKKKSSPHHHHHH,cleavage of a linearized DNA substrate containing the intended non-palindromic recognition sequence by the 1:1 mixture,[4],each rationally-designed meganuclease heterodimer cleaves its intended DNA site
"LAM1 variant in which lysines at positions 7, 57 and 96 were changed to glutamic acids (protein) MNTKYNEEFLLYLAGFVDGDGSIIAQIDPRQCRKFKHELRLRFQVTQKTQRRWFLDELVDEIGVGYVRDRGSVSDYILSEIKPLHNFLTQLQPFLELKQKQANLVLKIIWRLPSAKESPDKFLEVCTWVDQIAALNDSKTRKTTSETVRAVLDSLSEKKKSSPHHHHHH",cleavage of the LAM1/LAM2 hybrid site against the two palindromic sites by the co-expressed interface variants,[5],the LAM1/LAM2 hybrid site was found to be cleaved preferentially over the two palindromic sites
ACH1 rationally-designed meganuclease (I-CreI derivative) (protein) MNTKYNKEFLLYLAGFVDGDGSIIAAIDPEQDCKFKHRLRLRFQVTQKTQRRWFLDKLVDEIGVGYVRDRGSVSDYQLSEIKPLHNFLTQLQPFLKLKQKQANLVLKIIWRLPSAKESPDKFLEVCTWVDQIAALNDSKTRKTTSETVRAVLDSLSEKKKSSPHHHHHH,cleavage of a linearized DNA substrate containing the intended non-palindromic recognition sequence by the 1:1 mixture,[6],each rationally-designed meganuclease heterodimer cleaves its intended DNA site
HGH1 rationally-designed meganuclease (I-CreI derivative) (protein) MNTKYNKEFLLYLAGFVDGDGSIIAQIDPNQDCKFKHQLRLRFQVTQKTQRRWFLDKLVDEIGVGYVRDRGSVSDYILSEIKPLHNFLTQLQPFLKLKQKQANLVLKIIWRLPSAKESPDKFLEVCTWVDQIAALNDSKTRKTTSETVRAVLDSLSEKKKSSPHHHHHH,cleavage of a linearized DNA substrate containing the intended non-palindromic recognition sequence by the 1:1 mixture,[7],each rationally-designed meganuclease heterodimer cleaves its intended DNA site
LAM1 rationally-designed meganuclease (I-CreI derivative) (protein) MNTKYNKEFLLYLAGFVDGDGSIIAQIDPRQCRKFKHELRLRFQVTQKTQRRWFLDKLVDEIGVGYVRDRGSVSDYILSEIKPLHNFLTQLQPFLKLKQKQANLVLKIIWRLPSAKESPDKFLEVCTWVDQIAALNDSKTRKTTSETVRAVLDSLSEKKKSSPHHHHHH,cleavage of the non-palindromic LAM1/LAM2 hybrid DNA site by a 1:1 mixture incubated at 42 C for 20 minutes,[8],"The 1:1 mixture of LAM1 and LAM2, however, cleaves all three DNA sites"
same,cleavage of the non-palindromic LAM1/LAM2 hybrid DNA site by the co-expressed enzyme mixture,[8],"The co-expressed enzyme mixture was found to cleave all three sites, including the LAM1/LAM2 hybrid site"
MGC1 rationally-designed meganuclease (I-CreI derivative) (protein) MNTKYNKEFLLYLAGFVDGDGSIKAQIKPNQCYKFKHQLQLAFQVTQKTQRRWFLDKLVDEIGVGYVYDRGSVSDYILSEIKPLHNFLTQLQPFLKLKQKQANLVLKIIWRLPSAKESPDKFLEVCTWVDQIAALNDSKTRKTTSETVRAVLDSLSEKKKSSPHHHHHH,cleavage of a linearized DNA substrate containing the intended non-palindromic recognition sequence by the 1:1 mixture,[9],each rationally-designed meganuclease heterodimer cleaves its intended DNA site
CYP rationally-designed meganuclease (I-CreI derivative) (protein) MNTKYNKEFLLYLAGFVDGDGSIIAAIKPNQDYKFKHQLRLAFQVTQKTQRRWFLDKLVDEIGVGYVYDRGSVSDYQLSEIKPLHNFLTQLQPFLKLKQKQANLVLKIIWRLPSAKESPDKFLEVCTWVDQIAALNDSKTRKTTSETVRAVLDSLSEKKKSSPHHHHHH,cleavage of a linearized DNA substrate containing the intended non-palindromic recognition sequence by the 1:1 mixture,[10],each rationally-designed meganuclease heterodimer cleaves its intended DNA site
CF1 rationally-designed meganuclease (I-CreI derivative) (protein) MNTKYNKEFLLYLAGFVDGDGSICAQIKPNQSYKFKHQLQLAFQVTQKTQRRWFLDKLVDEIGVGYVHDRGSVSDYILSEIKPLHNFLTQLQPFLKLKQKQANLVLKIIWRLPSAKESPDKFLEVCTWVDQIAALNDSKTRKTTSETVRAVLDSLSEKKKSSPHHHHHH,cleavage of a linearized DNA substrate containing the intended non-palindromic recognition sequence by the 1:1 mixture,[11],each rationally-designed meganuclease heterodimer cleaves its intended DNA site
PDX1 rationally-designed meganuclease (I-CreI derivative) (protein) MNTKYNKEFLLYLAGFVDGDGSIIAQIKPNQNCKFKHQLQLAFQVTQKTQRRWFLDKLVDEIGVGYVRDRGSVSDYILSEIKPLHNFLTQLQPFLKLKQKQANLVLKIIWRLPSAKESPDKFLEVCTWVDQIAALNDSKTRKTTSETVRAVLDSLSEKKKSSPHHHHHH,cleavage of a linearized DNA substrate containing the intended non-palindromic recognition sequence by the 1:1 mixture,[12],each rationally-designed meganuclease heterodimer cleaves its intended DNA site
